In one data set the target is CsMYC2-MBP (Citrus sinensis (Newhall orange), UniProt V4SX11 1-519). As to the kind of experiment: EMSA; BLI: PBS, 100 nM biotin probe on SA sensors, CsMYC2-His 62.5-1000 nM, 1:1 fit. DNA pull-down: probe bound to beads in 10 mM Tris-HCl pH 7.5, 1 mM EDTA, 1 M NaCl, 0.1% Tween-20 at RT, then protein 1 h on ice. EMSA: as in Yue et al. 2019, buffer not given. To be noted: protein: recombinant; tags: MBP (pMAL-C2X); chain copies: 2; label: 3' biotin.

A further data set addresses CsMYC2-His (Citrus sinensis (Newhall orange), UniProt V4SX11 1-519). As to the kind of experiment: BLI; BLI: PBS, 100 nM biotin probe on SA sensors, CsMYC2-His 62.5-1000 nM, 1:1 fit. DNA pull-down: probe bound to beads in 10 mM Tris-HCl pH 7.5, 1 mM EDTA, 1 M NaCl, 0.1% Tween-20 at RT, then protein 1 h on ice. EMSA: as in Yue et al. 2019, buffer not given. The note with it: protein: recombinant; tags: His (pET30A); chain copies: 2; label: 3' biotin.

Chain of CsMYC2-MBP (V4SX11 entry or part of it): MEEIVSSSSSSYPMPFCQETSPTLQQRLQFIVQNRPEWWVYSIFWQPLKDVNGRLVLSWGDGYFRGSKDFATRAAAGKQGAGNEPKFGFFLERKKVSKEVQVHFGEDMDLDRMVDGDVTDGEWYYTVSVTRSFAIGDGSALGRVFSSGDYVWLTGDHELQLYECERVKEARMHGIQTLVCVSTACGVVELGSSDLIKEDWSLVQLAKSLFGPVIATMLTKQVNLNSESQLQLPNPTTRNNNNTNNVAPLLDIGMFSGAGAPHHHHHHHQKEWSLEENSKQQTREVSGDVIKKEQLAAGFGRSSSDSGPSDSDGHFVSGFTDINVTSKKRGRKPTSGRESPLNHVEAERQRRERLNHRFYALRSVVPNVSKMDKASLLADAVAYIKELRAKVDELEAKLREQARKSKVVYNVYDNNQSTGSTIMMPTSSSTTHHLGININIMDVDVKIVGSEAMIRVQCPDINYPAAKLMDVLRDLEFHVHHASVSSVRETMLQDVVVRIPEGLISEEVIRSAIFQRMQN
Chain of CsMYC2-His (V4SX11 entry or part of it): as above

B1: CsPSY-probe (dsDNA)
DNA 1: AAAACTTCAATTGATACTCTTCCACTAATTCT
DNA 2: AGAATTAGTGGAAGAGTATCAATTGAAGTTTT
As for B1, the binding result with CsMYC2-MBP was “binds”.

B2: CsCCD4b-probe (dsDNA)
DNA 1: GTACCATACAACTGTGGCACCATAGCTGGATC
DNA 2: GATCCAGCTATGGTGCCACAGTTGTATGGTAC
Regarding B2, the equilibrium dissociation constant (Kd) in the data set with CsMYC2-His was 58 nM.

B3: CsBCH-probe (dsDNA)
DNA 1: AATTTCGAATCTAACAAATGTTTCGTTGATAT
DNA 2: ATATCAACGAAACATTTGTTAGATTCGAAATT
With B3, the binding result with CsMYC2-MBP is “binds”.

B4: CsMPK6-probe (dsDNA)
DNA 1: AGCTCTATGTAACAACTGGGATCTATTTGAAA
DNA 2: TTTCAAATAGATCCCAGTTGTTACATAGAGCT
As to B4, the binding result with CsMYC2-MBP is “binds”.

B5: CsLCYb-probe (dsDNA)
DNA 1: CGACAGTTGGACCACTAGCTTCGTGACCGTTGT
DNA 2: ACAACGGTCACGAAGCTAGTGGTCCAACTGTCG
Turning to B5, the binding result with CsMYC2-MBP was “binds”.
